Experimental findings from patent US20230193513A1 are described below.

The target of this assay is glucagon-like peptide-1 receptor (GLP1R) (Homo sapiens (Human)) (UniProt P43220). As to the kind of experiment: cell-based or functional assay.
glucagon-like peptide-1 receptor (GLP1R) (Homo sapiens (Human)), sequence (P43220 24-463): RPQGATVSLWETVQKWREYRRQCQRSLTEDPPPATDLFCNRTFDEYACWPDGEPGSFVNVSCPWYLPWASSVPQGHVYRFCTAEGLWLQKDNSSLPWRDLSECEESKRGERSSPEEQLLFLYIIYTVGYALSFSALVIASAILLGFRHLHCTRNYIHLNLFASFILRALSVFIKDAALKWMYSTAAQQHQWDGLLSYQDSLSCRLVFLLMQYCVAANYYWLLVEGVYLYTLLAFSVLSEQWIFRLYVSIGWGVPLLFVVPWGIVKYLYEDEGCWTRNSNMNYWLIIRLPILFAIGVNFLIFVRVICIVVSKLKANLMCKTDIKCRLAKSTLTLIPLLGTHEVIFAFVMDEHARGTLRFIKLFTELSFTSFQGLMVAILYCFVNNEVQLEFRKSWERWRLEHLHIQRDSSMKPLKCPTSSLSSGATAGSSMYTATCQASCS

B1: GLP1R-59-241 (antibody, part only; not given: light chain, part only)
heavy: QVQLVQSGAEVKKPGSSVKVSCKASGGTFSDYAISWVRQAPGQGLEWMGGIIPIFGTTNYAQKFQGRVTITADESTSTAYMELSSLRSEDTAVYYCAKHMSMQGSVAGGTFTSDVSSYLEGQAAKEFIAWLVKGGPSFIRADLVGDAFDVWGQGTLVTVSSASASTKGPSVFPLAPCSRSTSESTAALGCLVKDYFPEPVTVSWNSGALTSGVHTFPAVLQSSGLYSLSSVVTVPSSNFGTQTYTCNVDHKPSNTKVDKTVERKCCVECPPCPAPPVAGPSVFLFPPKPKDTLMISRTPEVTCVVVDVSHEDPEVQFNWYVDGVEVHNAKTKPREEQFNSTFRVVSVLTVVHQDWLNGKEYKCKVSNKGLPAPIEKTISKTKGQPREPQVYTLPPSREEMTKNQVSLTCLVKGFYPSDIAVEWESNGQPENNYKTTPPMLDSDGSFFLYSKLTVDKSRWQQGNVFSCSVMHEALHNHYTQKSLSLSPG
The molecule B1 yielded an EC50 (nM) of the IgG as agonist, functional assay on GLP-1R overexpressing cells of 0.722 nM.

B2: GLP1R-59-243 (antibody, part only; not given: light chain, part only)
heavy: QVQLVQSGAEVKKPGSSVKVSCKASGGTFSTYGINWVRQAPGQGLEWMGGIIPIFGTANYAQKFQGRVTITADESTSTAYMELSSLRSEDTAVYYCARANQHFFGKGDNLAARDFINWLIQTKITDGSNPGYHYYGMDVWGQGTLVTVSSASASTKGPSVFPLAPCSRSTSESTAALGCLVKDYFPEPVTVSWNSGALTSGVHTFPAVLQSSGLYSLSSVVTVPSSNFGTQTYTCNVDHKPSNTKVDKTVERKCCVECPPCPAPPVAGPSVFLFPPKPKDTLMISRTPEVTCVVVDVSHEDPEVQFNWYVDGVEVHNAKTKPREEQFNSTFRVVSVLTVVHQDWLNGKEYKCKVSNKGLPAPIEKTISKTKGQPREPQVYTLPPSREEMTKNQVSLTCLVKGFYPSDIAVEWESNGQPENNYKTTPPMLDSDGSFFLYSKLTVDKSRWQQGNVFSCSVMHEALHNHYTQKSLSLSPG
B2 displayed an EC50 (nM) of the IgG as agonist, functional assay on GLP-1R overexpressing cells of 0.821 nM.

B3: GLP1R-3 (antibody, from a related filing, V domains shown, part only)
VH: QVQLVESGGGVVQPGRSLRLSCAASGFTFSSYGMHWVRQAPGKGLEWVSFISYDESNKYYADSVKGRFTISRDNSKNTLYLQMNSLRAEDTAVYYCAKHMSMQEGAVTGEGQAAKEFIAWLVKGRVRADLVGDAFDVWGQGTLVTVSS
VL: QSVLTQPPSVSAAPGQKVTISCSGSSSNIADNYVSWYQQLPGTAPKLLIYDNNKRPSGIPDRFSGSKSGTSATLGITGLQTGDEADYYCGTWDNYLGAGVFGGGTKLTVLG
As for B3, the EC50 (nM) of Exendin-4 induced cAMP activity with the antibody turned out to be 0.63 nM, the EC50 (nM) of GLP1 (7-36)-induced signaling with GLP1R IgG (+100 nM) stood at 1.31 nM, the fold difference of the EC50 against no antibody stood at 2.2 fold and the fold-diff of the Exendin-4 EC50 against Exendin-4 alone is 5.4 fold.
